The chains are these.
B1: gp34wt.09 (antibody, V domains shown)
VH: EVQLEQSGPELVKPGASVKMSCKASGYTFTRPYIHWVKQRPGQGLEWIGWIYPGDGITKYNEKFKGKITLTADKSSSAAYMLLSSLTSEDSAIYFCASFTTPVYWGQGTSVTVSS
VL: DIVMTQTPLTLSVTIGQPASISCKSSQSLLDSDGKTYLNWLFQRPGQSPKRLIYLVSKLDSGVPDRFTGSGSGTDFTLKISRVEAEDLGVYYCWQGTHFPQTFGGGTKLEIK
notes: mouse IgG1 hybridoma mAb; leader in entries; also called anti gp34 clone wt.09
B2: gp34wt.11 (antibody, V domains shown)
VH: B1 VH with E1Q, Q6E, F29V, P32S, I57S, I68T, A72V, A78T
VL: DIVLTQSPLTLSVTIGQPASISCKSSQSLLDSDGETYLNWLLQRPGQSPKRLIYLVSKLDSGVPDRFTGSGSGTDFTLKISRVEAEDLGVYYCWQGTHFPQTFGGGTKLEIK
notes: mouse IgG1 hybridoma mAb; leader in entries; also called anti gp34 clone wt.11
B3: gp34wt.12 (antibody, V domains shown)
VH: B1 VH with Q3K, E5Q, Q6E, F29V, P32S, I57S, I68T, A72V, A78T
VL: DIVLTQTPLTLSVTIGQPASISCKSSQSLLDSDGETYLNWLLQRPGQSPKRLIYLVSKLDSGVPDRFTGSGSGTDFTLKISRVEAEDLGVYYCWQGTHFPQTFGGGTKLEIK
notes: mouse IgG1 hybridoma mAb; leader in entries; also called anti gp34 clone wt.12
B4: gp34wt.10 (antibody, V domains shown)
VH: B1 VH with Q3K
VL: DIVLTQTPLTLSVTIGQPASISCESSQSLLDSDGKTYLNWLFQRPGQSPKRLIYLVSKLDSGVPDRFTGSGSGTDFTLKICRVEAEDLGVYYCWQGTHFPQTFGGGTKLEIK
notes: mouse IgG1 hybridoma mAb; leader in entries; also called anti gp34 clone wt.10
B5: gp34wt.13 (antibody, V domains shown)
VH: EVQLVESGPELKKPGETVKISCKASGYAFTNYGMNWVKQTPGKGLKWMGWINTYTGKPTYADDFKGRFAFSLETSASSAYLQINNLKNEDTATYFCARRRGNSFDYWGQGTTLTVSS
VL: DIVLTQSPSSLTVTAGEKVTMSCKSSQSLLNSGNQENCLTWYQQKPGQPPRLLIYWASTRESGVPDRFTGSGSGTDFTLTISSVQAEDLAVYYCQNDYTYPLTFGAGTKLELK
notes: mouse IgG2a hybridoma mAb; leader in entries; also called anti gp34 clone wt.13
B6: gp34wt.14 (antibody, V domains shown)
VH: B5 VH with E1Q, Q3K, V5L, E6Q
VL: B5 VL with L4I
notes: mouse IgG2a hybridoma mAb; leader in entries; also called anti gp34 clone wt.14
B7: gp34wt.07 (antibody, V domains shown)
VH: QVKLEESGPELVKTGASVKISCKASGYSFTSYQIYWVKQSHGKSLEWIGHISCYNGATSYNQKFKDKATFTVDTSSSTAYMQFNSLTSEDSAVYFCARYDYAPDYYAMDYWGQGTSVTVSS
VL: DIVLTQTPASLAVSLGQRATISCRASESVDSYGNSFMHWYQQKPGQPPKLLIYLASNLESGVPARFSGSGSRTDFTLTIDPVEAEDAAIYYCQQNNEDPLTFGGGTKLELK
notes: mouse IgG1 hybridoma mAb; leader in entries; also called anti gp34 clone wt.07
B8: gp34wt.08 (antibody, V domains shown)
VH: B7 VH with Q1E, K3Q, E6Q
VL: B7 VL with L4M
notes: mouse IgG1 hybridoma mAb; leader in entries; also called anti gp34 clone wt.08
B9: gp34wt.15 (antibody, V domains shown)
VH: QVKLQQSGPELVKPGASVKMSCKASGYTFRSYYIHWVKQRPGQGLEWIGWNNPGDGTAKYNEKFKGKTTLTADKSSSTAYMLLSSLTSEDSAIYFCASFNTPDYWGQGTSVTVSS
VL: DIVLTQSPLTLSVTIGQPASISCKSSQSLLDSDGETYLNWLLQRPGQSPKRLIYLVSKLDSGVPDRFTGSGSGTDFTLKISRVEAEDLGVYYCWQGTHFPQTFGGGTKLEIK
notes: mouse IgG1 hybridoma mAb; leader in entries; also called anti gp34 clone wt.15
B10: gp68.03 (antibody, V domains shown)
VH: EVKLEESGPEVKKPGETVKISCKASGYTFTNYGMSWLRQAPGKGLKWMGWINTYTGEPTYADDFKGRFAFSLETSASTAYFQINNLKDEDTTTYFCARRAFGGLDYWGQGTSVTVFS
VL: DIVLTQTPLSLPVSLGDQASISCRSSQSIVHSNGNTYLEWYLQKPGQSPKVLIYKVSKRFSGVPDRFSGSGSETDFTLKISRVEAEDMGVYYCFQGSHVPLTFGAGTKLELKR
notes: mouse IgG1 hybridoma mAb; leader in entries; VH entry see recheck; also called anti gp68 clone 68.03
B11: gp34mtrp.05 (antibody, V domains shown)
VH: B10 VH with E5L, E6Q, F116S
VL: DIVMTQSPLSLPVSLGDQASISCRSSQSIVYTNGNTYLEWYLQKPGQSPKLLIYKVSNRFSGVPDRFSGSGSGTDFTLKISRVEAEDLGVYYCFQGSHVPWTFGGGTKLEIK
notes: mouse IgG1 hybridoma mAb; leader in entries; also called anti gp34 clone mtrp.05
B12: gp34mtrp.06 (antibody, V domains shown)
VH: B10 VH with K3Q, E5L, E6Q, D88N, F116S
VL: B11 VL with M4L
notes: mouse IgG1 hybridoma mAb; leader in entries; also called anti gp34 clone mtrp.06
B13: gp34mtrp.03 (antibody, V domains shown)
VH: EVQLEESGTVLARPGASVKMSCKASGYTFTSYWMHWVKQRPGQGLEWIGAIYPGNSDTGYNQKFKGKARLTAVTSTSTAYLELSSLTDEDSAVYFCTRLGYGDYWGQGTTLTVSS
VL: DIVLTQTPSSMYASLGERVTITCKASQDINSYLTWFQQKPGKSPKTLIYRANRLVDGVPSRFSGSGSGQDYSLTINSLDYEDMGIYYCLQYDEFPPTFGGGTKLEIK
notes: mouse IgG1 hybridoma mAb; leader in entries; also called anti gp34 clone mtrp.03
B14: gp34mtrp.04 (antibody, V domains shown)
VH: B13 VH with Q3K, E5V, E6Q
VL: B13 VL with L4M
notes: mouse IgG1 hybridoma mAb; leader in entries; also called anti gp34 clone mtrp.04

Where a chain is given by its changes, count along the chain named.

The target of the first assay is T1, soluble human ICOSL ectodomain, V5-His tagged (sICOSL-V5His) (human, UniProt O75144 19-256).
T1 construct: extracellular domain; Control protein with the same tags as the vFcγRs
T1 sequence: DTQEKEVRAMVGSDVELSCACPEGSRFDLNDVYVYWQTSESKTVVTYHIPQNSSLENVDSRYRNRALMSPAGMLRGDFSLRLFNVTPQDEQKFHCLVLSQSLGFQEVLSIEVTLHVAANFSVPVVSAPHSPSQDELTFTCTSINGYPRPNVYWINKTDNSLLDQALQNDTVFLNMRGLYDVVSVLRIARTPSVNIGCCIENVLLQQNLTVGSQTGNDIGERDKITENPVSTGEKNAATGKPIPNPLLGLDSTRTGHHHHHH
Briefly: western blot.
With B1, the binding result is recorded as “no binding”.

Consider B2, for which the binding result is reported as “no binding”.

Take B3: the binding result is reported as “no binding”.

As to B4, the binding result is listed as “no binding”.

As to B5, the binding result is reported as “no binding”.

As for B6, the binding result is recorded as “no binding”.

For B7, the binding result is reported as “no binding”.

Take B8: the binding result is “no binding”.

As to B9, the binding result is “no binding”.

Turning to B10, the binding result is “no binding”.

A further assay deals with T2, soluble gp34 ectodomain W65F, V5-His tagged (sgp34mtrp-V5-His) (HCMV strain AD169).
T2 construct: signal peptide 1-23 left out; V5 and His tags are in the entry; Forms only monomers and dimers; also called sol gp34mtrp; gp34 1-179 W65F
T2 chain: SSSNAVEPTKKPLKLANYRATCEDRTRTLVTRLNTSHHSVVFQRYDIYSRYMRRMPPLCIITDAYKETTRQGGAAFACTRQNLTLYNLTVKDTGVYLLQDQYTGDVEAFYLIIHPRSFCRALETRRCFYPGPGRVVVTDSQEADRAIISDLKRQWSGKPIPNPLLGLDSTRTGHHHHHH
Briefly: ELISA mtrp. (ELISA stands for enzyme-linked immunosorbent assay.)
In the case of B1, the binding result is given as “no binding”.

Take B2: the binding result is on record as “no binding”.

Consider B3, for which the binding result was “no binding”.

For B4, the binding result is “no binding”.

In the case of B7, the binding result is “no binding”.

B8: the binding result is given as “no binding”.

For the molecule B11, the binding result was “binds”.

For the molecule B12, the binding result was “binds”.

In the case of B13, the binding result was “binds”.

With B14, the binding result was “binds”.

For the next assay, the target named is T3, gp34mtrp (W65F) on stably transduced HeLa cells (HCMV strain AD169, UniProt P16809 24-234).
T3 construct: whole, on cells; also called plasma membrane exposed gp34mtrp
T3 sequence: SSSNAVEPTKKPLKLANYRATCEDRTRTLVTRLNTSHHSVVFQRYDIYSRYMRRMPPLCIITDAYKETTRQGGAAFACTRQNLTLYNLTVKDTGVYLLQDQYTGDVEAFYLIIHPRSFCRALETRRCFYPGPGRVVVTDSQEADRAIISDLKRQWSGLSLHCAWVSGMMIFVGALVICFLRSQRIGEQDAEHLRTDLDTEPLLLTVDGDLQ
Briefly: flow cytometry, HeLa. For orientation: A flow cytometer gives signals particle by particle.
Regarding B1, the binding result is reported as “no binding (tested: 1 µg/ml)”.

Regarding B2, the binding result was “no binding (tested: 1 µg/ml)”.

Consider B3, for which the binding result is listed as “no binding (tested: 1 µg/ml)”.

As to B4, the binding result is “no binding (tested: 1 µg/ml)”.

As to B7, the binding result is “no binding (tested: 1 µg/ml)”.

For B8, the binding result is listed as “no binding (tested: 1 µg/ml)”.

Take B9: the binding result was “no binding (tested: 1 µg/ml)”.

Another assay deals with T4, gp68_ECD_1 (1-201 aa) (HCMV strain AD169, UniProt P16739 24-201).
T4 construct: signal peptide 1-23 left out
Briefly: ELISA, coated supernatant.
As for B10, the binding result is listed as “no binding (tested: 1 µg/ml)”.

A further assay addresses T5, gp68_ECD_4a* (1-144aa) (HCMV strain AD169, UniProt P16739 24-144).
T5 construct: Shortened by a stop codon that arose in cloning, so a C-terminal tag is doubtful
T5 sequence: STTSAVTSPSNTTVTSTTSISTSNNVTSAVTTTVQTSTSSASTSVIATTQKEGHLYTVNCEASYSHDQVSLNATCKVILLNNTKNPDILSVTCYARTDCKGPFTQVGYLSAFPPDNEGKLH
Briefly: ELISA, coated supernatant.
For B10, the binding result was “no binding (tested: 1 µg/ml)”.

The target in the next assay is gp68_ECD_4b (1-152) (HCMV strain AD169, UniProt P16739 24-152). The assay can be described thus: ELISA, coated supernatant.
For the molecule B10, the binding result is listed as “no binding (tested: 1 µg/ml)”.

A further assay has as its target T6, gp34wt on stably transduced HeLa cells (HCMV strain AD169, UniProt P16809 24-234).
T6 construct: whole, on cells; also called plasma membrane exposed gp34wt
T6 sequence: T3 sequence with F42W
The assay can be described thus: flow cytometry, HeLa, 1 µg/ml.
In the case of B1, the binding result is “binds”.

Regarding B2, the binding result is listed as “binds”.

B3: the binding result is listed as “binds”.

As to B4, the binding result is “binds”.

Turning to B9, the binding result is “binds”.

The target of the next assay is T7, soluble gp34 wild type ectodomain, V5-His tagged (sgp34wt-V5-His) (HCMV strain AD169).
T7 construct: Entry holds signal peptide 1-23 (left out), ectodomain, V5 tag and His tag; Forms monomers, dimers and higher oligomers; also called sol gp34 wt; gp34 1-179
T7 chain: T2 chain with F42W
Briefly: sgp34wt pre-incubated with mAb, ELISA on CRP.
Description: In addition, binding of sgp34wt to immobilized CRP in absence of any mAb is depicted.
B11: the “percent blocking of gp34-CRP-binding” value was roughly 50%.

For B12, the “percent blocking of gp34-CRP-binding” value was roughly 50%.

With B13, the “percent blocking of gp34-CRP-binding” value is roughly 50%.

Turning to B14, the “percent blocking of gp34-CRP-binding” value was roughly 50%.

A further assay has as its target T7, soluble gp34 wild type ectodomain, …. Briefly: sgp34wt pre-incubated with mAb, ELISA on FcRn.
Protocol: Furthermore, the gp34wt and FcRn interaction was investigated whereby various anti-gp34 mAbs were analyzed and their potential to block this interaction was identified. Experiments were performed as described before for IgG-blocking ELISA, but this time using immobilized FcRn as a novel gp34-ligand.
In addition, binding of sgp34wt to immobilized FcRn in absence of any mAb is depicted.
Regarding B11, the “percent blocking of gp34 FcRn-binding” value was no more than 50%.

Take B12: the “percent blocking of gp34 FcRn-binding” value was no more than 50%.

For the molecule B13, the “percent blocking of gp34 FcRn-binding” value was no more than 50%.

On to B14, for which the “percent blocking of gp34 FcRn-binding” value is no more than 50%.

The target is the same in another assay. Briefly: blocking of sgp34wt binding to immobilized human IgG, ELISA.
Protocol: FIG. 44: IgG blocking ability by anti-gp34mtrp mAbs. vFcγR gp34 is an HCMV encoded IgG-Fc-binding. Anti-gp34mtrp-specific mAbs (in titration) were pre-incubated with recombinant, sgp34wt (constant amount 1 μg/ml) and added to IgG-immobilized ELISA plates. […] Dose-dependent potential of mAbs used for blocking is indicated. Effect by non-specific mouse IgG isotype IgG1 is shown. In addition, binding of sgp34wt to immobilized IgG in absence of any mAb is depicted.
To test if anti-gp34wt specific mAbs can interfere with IgG-binding ability of gp34 and human IgG. Therefore, recombinant, sgp34wt was pre-incubated with indicated anti-gp34wt specific mAbs, mouse IgG isotype or PBS only. Next, antibody bound sgp34wt was incubated on IgG-immobilized ELISA plates.
Anti-gp34wt-specific mAbs (in titration) were pre-incubated with recombinant, sgp34wt (constant amount 1 μg/ml) and added to IgG-immobilized ELISA plates. […] Dose-dependent potential of mAbs used for blocking is indicated. […] In addition, binding of sgp34wt to immobilized IgG in absence of any mAb is depicted.
What is called IC50 is the concentration at which inhibition is half-maximal. A higher IC50 goes with weaker potency in that assay. B1 returned an IC50 of 0.063 µg/mL.

With B2, the IC50 was found to be 0.077 µg/mL.

B3 had an IC50 of 0.07 µg/mL.

B4 had an IC50 of 0.089 µg/mL.

In the case of B7, the IC50 was found to be 0.447 µg/mL.

Turning to B8, the IC50 worked out at 0.494 µg/mL.

The molecule B9 came in with an IC50 of 0.12 µg/mL.

With B11, the 50% inhibitory concentration (IC50) was determined as 5.34 µg/mL.

In the case of B12, the IC50 came out at 4.46 µg/mL.

With B13, the IC50 was 0.152 µg/mL.

Regarding B14, the IC50 came to 0.147 µg/mL.
